Patent US20060228367A1 (AstraZeneca / MedImmune, published 2006)
Substitutions are numbered along the chain they refer to. Where two headings read alike, the source gives them in different places.

B1: monoclonal antibody 168-A5-338-284 (antibody, V domains shown)
VH: QVQLKESGPGLVAPSQSLSITCTVSGFSLSSYGVHWVRQSPGKGLEWLGVMWGDGSTNYHSGLISRLTISKDSSKSQVFLKLNSLQTDDTATYYCGKSFGVYAVDYWGQGTSVTVSS
VL: DIQMTQTTSSLSASLGDRVTINCRASQDVNNYLNWYQQKPDGTVKLLIYYTSMLHSGVPSRFSGSGSETDYSLTITNLEQEDIATYFCQQGETLPPTFGGGTKVEIK
notes: Mouse hybridoma antibody purified on protein A; also called mAb338
B2: monoclonal antibody 168-A5-234-114 (antibody, V domains shown)
VH: B1 VH with S30T, S31D, H35S, S40P, M51I, S56N, G62A, T68S, S73N, V104M
VL: B1 VL with D1E, A25T, V29T, L33I, E68G, T76S, E92D
notes: Mouse hybridoma antibody purified on protein A; also called mAb234; mAb 234

What was measured:
[1] = target: T1, soluble histidine-tagged hMPV F protein from NL\1\99 (human metapneumovirus, isolate NL/1/99, UniProt Q6WB98 19-490); test: Biacore SPR; average of the two F-99-1 surfaces
T1 construct: also called sFNL\1\99; soluble FNL\1\99

[2] = target: T2, soluble histidine-tagged hMPV F protein from NL\1\00 (human metapneumovirus, isolate NL/1/00, UniProt Q6WB98 19-490); test: Biacore SPR; F-00-1 immobilised at 134 RU, mAb injected
T2 construct: the reverse primer ends the F part at ...AEKGNTG before the tag; also called sFNL\1\00; soluble FNL\1\00

[3] = target: T1, soluble histidine-tagged hMPV F protein …; test: Biacore SPR; F-99-1 immobilised at 80 RU, mAb injected
[4] = target: T1, soluble histidine-tagged hMPV F protein …; test: Biacore SPR (comparison table; virus type B)
[5] = target: T2, soluble histidine-tagged hMPV F protein …; test: Biacore SPR (summary table)
[6] = target: T1, soluble histidine-tagged hMPV F protein …; test: Biacore SPR (summary table)
[7] = target: T3, F protein of hMPV strain NL\1\00 (subtype A1), on virus (human metapneumovirus, isolate NL/1/00, UniProt Q6WB98 19-538); test: cell-based or functional assay
[8] = target: T4, F protein of hMPV strain NL\1\94 (subtype B2), on virus (human metapneumovirus, isolate NL/1/94, UniProt Q6WB98 19-539); test: cell-based or functional assay
[9] = target: T5, F protein of hMPV strain NL\17\00 (subtype A2), on virus (human metapneumovirus, isolate NL/17/00, UniProt Q6WB98 19-539); test: cell-based or functional assay
[10] = target: T6, F protein of hMPV strain NL\1\99 (subtype B1), on virus (human metapneumovirus, isolate NL/1/99, UniProt Q6WB98 19-539); test: cell-based or functional assay
[11] = target: T2, soluble histidine-tagged hMPV F protein …; test: Biacore SPR (comparison table; virus type A)
[12] = target: T3, F protein of hMPV strain NL\1\00 …; test: cell-based or functional assay; remark: listed apart in the source
[13] = target: T4, F protein of hMPV strain NL\1\94 …; test: cell-based or functional assay; remark: listed apart in the source
[14] = target: T5, F protein of hMPV strain NL\17\00 …; test: cell-based or functional assay; remark: listed apart in the source
[15] = target: T6, F protein of hMPV strain NL\1\99 …; test: cell-based or functional assay; remark: listed apart in the source
[16] = target: T1, soluble histidine-tagged hMPV F protein …; test: Biacore 3000 SPR; antigen immobilised on CM5 at 80 RU, mAb injected
[17] = target: T3, F protein of hMPV strain NL\1\00 …; test: cell-based or functional assay; remark: listed apart in the source
[18] = target: T6, F protein of hMPV strain NL\1\99 …; test: cell-based or functional assay; remark: listed apart in the source
[19] = target: T2, soluble histidine-tagged hMPV F protein …; test: Biacore 3000 SPR; antigen immobilised on CM5 at 134 RU, mAb injected
[20] = target: T3, F protein of hMPV strain NL\1\00 …; test: cell-based or functional assay; remark: listed apart in the source
[21] = target: T4, F protein of hMPV strain NL\1\94 …; test: cell-based or functional assay; remark: listed apart in the source
[22] = target: T5, F protein of hMPV strain NL\17\00 …; test: cell-based or functional assay; remark: listed apart in the source
[23] = target: T6, F protein of hMPV strain NL\1\99 …; test: cell-based or functional assay; remark: listed apart in the source
[24] = target: T1, soluble histidine-tagged hMPV F protein …; test: Biacore SPR; F-99-1 immobilised at 300 RU, mAb injected
[25] = target: T1, soluble histidine-tagged hMPV F protein …; test: Biacore SPR; F-99-1 immobilised at 146 RU, mAb injected

| Binder | Kd [1] [nM] | koff [1] [s⁻¹] | kon [1] [M⁻¹ s⁻¹] | Kd [2] [nM] | koff [2] [s⁻¹] | kon [2] [M⁻¹ s⁻¹] | Kd [3] [nM] | koff [3] [s⁻¹] | kon [3] [M⁻¹ s⁻¹] | Kd [4] [nM] | kon [4] [M⁻¹ s⁻¹] | Kd [5] [nM] | Kd [6] [nM] | IC50 (neutralization titer) [7] [mg/L] | IC50 (neutralization titer) [8] [mg/L] | IC50 (neutralization titer) [9] [mg/L] | IC50 (neutralization titer) [10] [mg/L] | Kd [11] [nM] | kon [11] [M⁻¹ s⁻¹] | IC50 (neutralization titer) [12] [nM] | further results |
| --- | --- | --- | --- | --- | --- | --- | --- | --- | --- | --- | --- | --- | --- | --- | --- | --- | --- | --- | --- | --- | --- |
| B1 | 1.73 | 0.000282 | 163000 | 1.74 | 0.000276 | 158000 | 1.42 | 0.000272 | 192000 | 1.42 | 192000 | 1.7 | 1.4 | 0.375 | 0.165 | 0.81 | 0.03 | 1.74 | 158000 | 2.5 | IC50 (neutralization titer) [13]: 1.1 nM; IC50 (neutralization titer) [14]: 5.4 nM; IC50 (neutralization titer) [15]: 0.2 nM; Kd [16]: 1.42 nM; koff [16]: 0.000272 s⁻¹; kon [16]: 192000 M⁻¹ s⁻¹; IC50 in vitro neutralization [17]: 0.4 mg/L; IC50 in vitro neutralization [18]: 0.03 mg/L; Kd [19]: 1.74 nM; koff [19]: 0.000276 s⁻¹; kon [19]: 158000 M⁻¹ s⁻¹; IC50 (virus neutralization) [20]: 0.38 mg/L; IC50 (virus neutralization) [21]: 0.17 mg/L; IC50 (virus neutralization) [22]: 0.8 mg/L; IC50 (virus neutralization) [23]: 0.03 mg/L; Kd [24]: 2.18 nM; koff [24]: 0.000293 s⁻¹; kon [24]: 134000 M⁻¹ s⁻¹ |
| B2 | 2.83 | 0.000382 | 135000 | 4.49 | 0.000352 | 78300 | 2.41 | 0.000463 | 192000 | 2.41 | 192000 | 4.5 | 2.4 | 0.585 | 0.18 | 1.16 | 0.0075 | 4.49 | 783000 | 3.9 | IC50 (neutralization titer) [13]: 1.2 nM; IC50 (neutralization titer) [14]: 7.7 nM; IC50 (neutralization titer) [15]: 0.05 nM; Kd [16]: 2.41 nM; koff [16]: 0.000463 s⁻¹; kon [16]: 192000 M⁻¹ s⁻¹; IC50 in vitro neutralization [17]: 0.6 mg/L; IC50 in vitro neutralization [18]: 0.01 mg/L; Kd [19]: 4.49 nM; koff [19]: 0.000352 s⁻¹; kon [19]: 78300 M⁻¹ s⁻¹; IC50 (virus neutralization) [20]: 0.59 mg/L; IC50 (virus neutralization) [21]: 0.18 mg/L; IC50 (virus neutralization) [22]: 1.2 mg/L; IC50 (virus neutralization) [23]: 0.01 mg/L; Kd [25]: 3.83 nM; koff [25]: 0.000302 s⁻¹; kon [25]: 78900 M⁻¹ s⁻¹ |
